# ± gives the standard error.
# B1: library; numbered along this chain (parent)
# chain: MATDAALRRLLRLHRTEIAVAVDSAFPLLHALADHDVVPEDKFQETLHLKEKEGCPQAFHALLSWLLTQDSTAILDFWRVLFKDYNLERYGRLQPILDSFPKDVDLSQPRKGRKPPAVPKALVPPPRLPTKRKASEEARAAAPAALTPRGTASPGSQLKAKPPKKPESSAEQQRLPLGNGIQTMSASVQRAVAMSSGDVPGARGAVEGILIQQVFESGGSKKCIQVGGEFYTPSKFEDSGSGKNKARSSSGPKPLVRAKGAQGAAPGGGEARLGQQGSVPAPLALPSDPQLHQKNEDECAVCRDGGELICCDGCPRAFHLACLSPPLREIPSGTWRCSSCLQATVQEVQPRAEEPRPQEPPVETPLPPGLRSAGEEVRGPPGEPLAGMDTTLVYKHLPAPPSAAPLPGLDSSALHPLLCVGPEGQQNLAPGARCGVCGDGTDVLRCTHCAAAFHWRCHFPAGTSRPGTGLRCRSCSGDVTPAPVEGVLAPSPARLAPGPAKDDTASHEPALHRDDLESLLSEHTFDGILQWAIQSMARPAAPFPS
# Variants of: B1
# Assay: AIRE transcriptional activation functional score (insulin promoter-GFP; nonsense median 0, synonymous median 1) (normalised score); higher = higher AIRE activity (more reporter activation)
# Conditions: with insulin promoter-GFP reporter in HEK293
# In short: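 Codon-optimized AIRE NNN-codon libraries (three regions) were integrated by Bxb1 recombinase into Flp-In T-REx HEK293 landing-pad cells carrying an insulin core promoter-GFP reporter. Integrants (mCherry+, BFP−) sorted at day 7 were expanded 7 days; top 10% GFP and unselected integrant populations were tile-sequenced. Functional score is select versus non-select variant enrichment, wild-type subtracted. Variants needed 10 counts per million in non-select; scores were rescaled to nonsense median 0 and synonymous median 1, then averaged over biological replicates.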
row,Variant,AIRE transcriptional activation functional score
1,E51Q,0.593 ± 0.1
2,E51V,0.0642 ± 0.14
3,P381V,1.15 ± 0.14
4,T463I,0.876 ± 0.1
5,T463G,1.01 ± 0.066
6,G486W,1.49 ± 0.017
7,G486R,0.926 ± 0.16
8,D478S,0.816 ± 0.23
9,D478Y,0.902 ± 0.085
10,W531F,0.12 ± 0.12
11,P481I,0.238 ± 0.19
12,V123L,1.28 ± 0.27
13,R272P,0.879 ± 0.33
14,T151Q,1.28 ± 0.67
15,T151S,1.01 ± 0.31
16,T72L,0.84 ± 0.8
17,S220R,1.06 ± 0.37
18,G240Q,0.0726 ± 0.14
19,G240L,1.2 ± 0.051
20,P129L,0.107 ± 0.25
21,P400G,1.13 ± 0.12
22,K120N,1.29 ± 0.21
23,K120L,1.13 ± 0.29
24,K120Q,0.232 ± 0.33

row,Variant,AIRE transcriptional activation functional score
1,R92P,-0.2 ± 0.47
2,R92W,0.13 ± 0.17
3,R92L,-0.166 ± 0.38
4,L97M,0.762 ± 0.19
5,E88A,1.18 ± 0.46
6,A489Q,0.0401 ± 0.2
7,A489E,0.655 ± 0.041
8,T447A,1.02 ± 0.4
9,E216S,1.33 ± 0.068
10,G305W,0.779 ± 0.044
11,G268Q,0.515 ± 0.043
12,A141N,0.447 ± 0.15
13,Q189R,0.813 ± 0.21
14,P466R,0.843 ± 0.16
15,P466E,0.232 ± 0.26
16,P466C,1.89 ± 0.097
17,T441N,0.751 ± 0.16
18,T441K,1.31 ± 0.051
19,Y231H,0.724 ± 0.039
20,Y231Q,0.625 ± 0.18
21,R378A,0.851 ± 0.32
22,H458C,1.02 ± 0.049
23,G438T,0.646 ± 0.18
24,G438K,1.12 ± 0.044

row,Variant,AIRE transcriptional activation functional score
1,P492T,1.31 ± 0.26
2,P492V,1.07 ± 0.25
3,P492Q,0.812 ± 0.47
4,R127L,0.607 ± 0.27
5,Q108A,0.176 ± 0.28
6,Q108V,0.8 ± 0.33
7,L409K,0.881 ± 0.045
8,G201S,0.809 ± 0.35
9,V479Y,0.896 ± 0.28
10,L87V,0.869 ± 0.25
11,K159L,1.18 ± 0.32
12,E423G,1.34 ± 0.23
13,S339Q,1.16 ± 0.21
14,S339Y,1.09 ± 0.096
15,S339E,0.838 ± 0.15
16,S339L,0.775 ± 0.22
17,V377Q,0.854 ± 0.047
18,V377C,1.32 ± 0.11
19,V214Y,1.25 ± 0.04
20,G269K,1.07 ± 0.14
21,L519E,0.874 ± 0.093
22,L291M,1.29 ± 0.025
23,F59L,0.0546 ± 0.18
24,D297I,0.487 ± 0.36

row,Variant,AIRE transcriptional activation functional score
1,H523Y,1.33 ± 0.074
2,D4N,0.245 ± 0.27
3,D526R,-0.505 ± 0.11
4,D526E,0.925 ± 0.046
5,S372N,1.2 ± 0.039
6,S153K,0.285 ± 0.37
7,S153Q,0.582 ± 0.29
8,E354S,0.901 ± 0.15
9,E354C,1.16 ± 0.063
10,E354K,0.669 ± 0.23
11,L29C,-0.201 ± 0.2
12,L29K,0.34 ± 0.67
13,R433W,1.4 ± 0.071
14,T16E,1.64 ± 0.14
15,P401C,1.7 ± 0.066
16,P401E,1.49 ± 0.18
17,S107L,1.05 ± 0.81
18,L66W,0.0325 ± 0.056
19,V436F,1.11 ± 0.13
20,V436I,1.35 ± 0.16
21,V484I,1.45 ± 0.18
22,V484R,0.893 ± 0.069
23,D36K,0.212 ± 0.12
24,D36P,0.171 ± 0.53

row,Variant,AIRE transcriptional activation functional score
1,K253F,0.823 ± 0.3
2,P119T,1.59 ± 0.55
3,G180L,0.0432 ± 0.4
4,G424K,1.04 ± 0.3
5,P233C,1.17 ± 0.091
6,P116M,1.1 ± 0.35
7,V80Y,0.606 ± 0.068
8,K294A,0.459 ± 0.36
9,A271P,1.02 ± 0.28
10,K42I,0.472 ± 0.67
11,K42F,0.0107 ± 0.18
12,A33K,-0.895 ± 0.42
13,A33L,0.173 ± 0.67
14,P101R,0.861 ± 0.6
15,G197V,1.14 ± 0.14
16,D442C,0.845 ± 0.059
17,H60P,-0.793 ± 0.31
18,H60K,-0.424 ± 0.78
19,P499G,1.31 ± 0.46
20,D503C,0.896 ± 0.15
21,E485L,1.11 ± 0.13
22,G208K,0.899 ± 0.23
23,A496E,0.99 ± 0.055
24,K222Q,1.11 ± 0.21

row,Variant,AIRE transcriptional activation functional score
1,K222P,0.845 ± 0.28
2,K83R,0.00955 ± 0.44
3,L428Y,1.05 ± 0.24
4,L428N,1.08 ± 0.23
5,P143R,0.548 ± 0.3
6,E171G,1.27 ± 0.47
7,E171L,1.59 ± 0.33
8,I96L,0.547 ± 0.3
9,L511K,-0.311 ± 0.054
10,L511H,0.98 ± 0.25
11,P280Q,1.14 ± 0.094
12,R89V,-3.54 ± 0.25
13,R89A,0.812 ± 0.13
14,V22L,0.487 ± 0.64
15,C449V,0.0568 ± 0.16
16,L495E,1 ± 0.11
17,G387S,0.84 ± 0.18
18,F26N,0.281 ± 0.066
19,R9M,0.633 ± 0.12
20,P162R,0.224 ± 0.29
21,C314L,0.847 ± 0.12
22,P405E,0.742 ± 0.073
23,D439A,1.1 ± 0.4
24,D439W,1.2 ± 0.12

row,Variant,AIRE transcriptional activation functional score
1,H507G,0.805 ± 0.084
2,H507S,0.954 ± 0.32
3,G91Y,2.5 ± 0.45
4,A264F,1 ± 0.22
5,L417R,0.707 ± 0.21
6,L417A,0.892 ± 0.26
7,A191Q,0.489 ± 0.13
8,S217L,0.613 ± 0.28
9,S217E,0.8 ± 0.034
10,R473Q,0.968 ± 0.13
11,Q275W,1.74 ± 0.026
12,K52C,-0.346 ± 0.18
13,K133G,0.153 ± 0.19
14,K133C,0.0795 ± 0.2
15,C223D,0.503 ± 0.14
16,L10F,0.827 ± 0.25
17,F543V,0.18 ± 0.21
18,F543S,0.493 ± 0.26
19,A429K,0.0334 ± 0.24
20,G227H,0.263 ± 0.3
21,G227P,0.459 ± 0.12
22,E40F,-0.259 ± 0.34
23,S506E,0.655 ± 0.93

# — the supplement of paper PMC12667976
